Drawing on US20120263730A1 (DEUTSCHES KREBSFORSCHUNGSZENTRUM, published 2012), this text covers binding result and Kd for three molecules.

B1: hRspo1-AP (human Rspondin-1 fused C-terminally with alkaline phosphatase) (ligand, UniProt Q2MKA7 21-263, looked up)
chain: SRGIKGKRQRRISAEGSQACAKGCELCSEVNGCLKCSPKLFILLERNDIRQVGVCLPSCPPGYFDARNPDMNKCIKCKIEHCEACFSHNFCTKCKEGLYLHKGRCYPACPEGSSAANGTMECSSPAQCEMSEWSPWGPCSKKQQLCGFRRGSEERTRRVLHAPVGDHAACSDTKETRRCTVRRVPCPEGQKRRKGGQGRRENANRNLARKESKEAGAGSRRRKGQQQQQQQGTVGPLTSAGPA
notes: Used as conditioned medium from HEK293T cells; also called hRspol-AP; not shown: alkaline phosphatase (AP) tag
B2: N-streptag Sdc4ΔTMC (human Syndecan-4 extracellular domain, last 52 amino acids deleted, N-terminal Streptag-HA-CBP) (receptor)
chain: ESIRETEVIDPQDLLEGRYFSGALPDDEDVVGPGQESDDFELSGSGDLDDLEDSMIGPEVVHPLVPLDNHIPERAGSGSQVPTEPKKLEENEVIPKRISPVEESEDVSNKVSMSSTVQGSNIFERTE
modifications: sulfated glycosaminoglycan chains (GAGs)
notes: The Sdc4 signal peptide was replaced by that of mKremen2; Partially purified from conditioned medium of HEK293T cells and captured on streptavidin-coated plates; also called N-streptag-hSdc4ΔTMC; purified extracellular domain of Sdc4; not shown: Streptag-HA-CBP fragment of the pGLUE expression vector
B3: human Syndecan-4 (receptor)
chain: ESIRETEVIDPQDLLEGRYFSGALPDDEDVVGPGQESDDFELSGSGDLDDLEDSMIGPEVVHPLVPLDNHIPERAGSGSQVPTEPKKLEENEVIPKRISPVEESEDVSNKVSMSSTVQGSNIFERTEVLAALIVGGIVGILFAVFLILLLMYRMKKKDEGSYDLGKKPIYKKAPTNEFYA
modifications: glycosaminoglycan chains (GAGs)
notes: Expressed on transfected HEK293T cells; also called Sdc4; hSdc4

The target in assay [1] is T1, mouse Syndecan-3 (mouse, UniProt Q64519 45-442, glycosaminoglycan chains (sites not given)).
T1 construct: whole, on cells; Expressed on transfected HEK293T cells; also called Sdc3; mSdc3
T1 sequence (Q64519 45-442): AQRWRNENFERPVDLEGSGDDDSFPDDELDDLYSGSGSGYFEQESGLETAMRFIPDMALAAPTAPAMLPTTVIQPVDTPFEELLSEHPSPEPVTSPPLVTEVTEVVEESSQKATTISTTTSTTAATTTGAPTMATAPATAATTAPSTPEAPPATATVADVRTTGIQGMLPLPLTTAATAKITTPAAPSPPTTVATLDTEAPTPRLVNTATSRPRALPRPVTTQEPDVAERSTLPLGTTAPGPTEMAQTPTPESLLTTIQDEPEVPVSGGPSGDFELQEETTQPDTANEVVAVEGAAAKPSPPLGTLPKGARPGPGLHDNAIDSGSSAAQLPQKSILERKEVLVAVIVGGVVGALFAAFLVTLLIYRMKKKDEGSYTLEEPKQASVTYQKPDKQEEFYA
The experiment in a line: cell surface binding, AP fusion on transfected HEK293T cells. The source says: (§1) (A) Rspo2 and Rspo3 bind to Syndecan-1, Syndecan-2, Syndecan-3 and Syndecan-4. […] HEK293 T-cells were transfected with indicated plasmids and alkaline phosphatase tagged Rspo1, Rspo2, Rspo3 and Rspo4 proteins were applied for cell surface binding as indicated. Cells were transfected with indicated plasmids and conditioned media containing alkaline phosphatise (AP)-fusion proteins of R-spondins were applied for cell surface binding and AP staining as indicated. (B) Cells were transfected with indicated plasmids and incubated with or without NaClO₃. After 24 h Rspo3-AP was applied for binding and proceeded for staining. (C) In vitro binding assay with N-streptag Sdc4ΔTMC purified from conditioned media of control or NaCIO₃ treated cells with purified Rspo3-AP (RU, relative units). (D) Scatchard plot analysis for in vitro binding assays with purified N-streptag Sdc4ΔTMC and Rspo3-AP. (E) Rspo3 binds to Glypican-1, Glypican-2, Glypican-3, Glypican-4, Glypican-5 and Glypican-6.
(§2) Protein conditioned media were produced by transient transfection of HEK293T cells with plasmids encoding fusion proteins: hRspol-AP, hRspo2ΔC-AP, hRspo3ΔC-AP, hRspo3TSP-AP, and dkk1-AP in complete DMEM. XWnt8-hFzd5 fusion was produced in serum-free medium (OPTIMEM I, Gibco) and conditioned medium was concentrated about 100-fold using Centricon Plus-20 filters (Millipore). Wnt5aV5 protein conditioned media was produced using L cells stable transfected with pWnt5aV5. For cell-surface binding experiments, 293T cells were plated on polylysine coated plates, transfected with genes to be tested using FuGENE 6 (Roche) for 48 h, incubated with conditioned media containing fusion proteins for 2 h on ice, washed with Hank's buffer, fixed for 30 min with 0,5mM DSP (Pierce) in Hank's-100mM HEPES, pH 7,2, washed with 0,1 M Tris pH 8,0 and stained with Fast Red (Roche). […] It should be compared with background staining obtained from cells transfected with control plasmid or other genes that are not able bind applied fusion protein.

Assay [2] deals with T2, mouse Syndecan-1 (mouse, UniProt P18828 23-311, glycosaminoglycan chains (sites not given)).
T2 construct: whole, on cells; Expressed on transfected HEK293T cells; also called Sdc1; mSdc1
T2 sequence (looked up): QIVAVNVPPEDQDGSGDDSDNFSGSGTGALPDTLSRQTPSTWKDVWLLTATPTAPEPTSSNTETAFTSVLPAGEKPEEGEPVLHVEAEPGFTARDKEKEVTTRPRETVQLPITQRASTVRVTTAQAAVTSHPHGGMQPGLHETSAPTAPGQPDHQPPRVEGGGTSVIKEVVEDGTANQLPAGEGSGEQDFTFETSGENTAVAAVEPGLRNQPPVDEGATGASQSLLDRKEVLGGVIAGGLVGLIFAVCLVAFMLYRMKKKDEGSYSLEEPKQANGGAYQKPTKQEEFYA
The description is as above.
Text: as §1, §2

For assay [3], the target named is T3, hRspo3ΔC-AP (human Rspondin-3 aa 1-209 fused to alkaline phosphatase) (human, UniProt Q9BXY4 22-209).
T3 construct: partially purified for the in vitro assay; also called Rspo3-AP; hRspo3-AP; not shown: alkaline phosphatase (AP) tag
T3 sequence: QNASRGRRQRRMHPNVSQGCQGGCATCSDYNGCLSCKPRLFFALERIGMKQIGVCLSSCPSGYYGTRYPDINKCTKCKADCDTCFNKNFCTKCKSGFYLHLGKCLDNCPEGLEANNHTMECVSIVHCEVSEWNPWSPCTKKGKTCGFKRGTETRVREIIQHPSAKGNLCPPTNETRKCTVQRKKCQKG
The experiment in a line: in vitro binding assay: N-streptag Sdc4ΔTMC on streptavidin-coated plates, serially diluted hRspo3ΔC-AP, bound AP activity by chemiluminescence, Scatchard plot. As for the experimental part:
For the in vitro binding assay white, high binding ELISA 96 well plates (Greiner) were coated overnight at 4° C. with 100 μL of 2 μg/mL Streptavidin in bicarbonate buffer (NaHCO₃, 50 mM, pH 9,6). Wells were washed 6 times with […] TBST and incubated with […] of blocking buffer (5% BSA, 1mM MgCl₂ on TBST) on a shaker for 1h at RT. The wells were loaded with […] N-streptag Sdc4ATMC protein in blocking buffer and allowed to bind overnight on a shaker at 4° C. Wells were washed 6 times with […] TBST and incubated with […] of blocking buffer for 1 h. For the binding experiments, […] of serially diluted hRspo3ΔC-AP were placed in wells coated with blocking buffer or N-streptag Sdc4ΔTMC. After 2 h incubation at RT wells were washed 6 times with […] TBST. Bound AP activity was measured using chemiluminescent SEAP Reporter Gene Assay (Roche). For each dilution, background binding value was subtracted from hRspo3ΔC-AP value. Binding data were analyzed by Scatchard plot using Excel.

Assay [4] deals with B1. In words: cell surface binding, AP fusion on transfected HEK293T cells.
Text: as §1, §2

For assay [5], the target named is T4, Wnt5aV5 (V5-tagged Wnt5a) (mouse, UniProt P22725 62-380, limits assumed).
T4 construct: The construct text says 'mWnt3a was subcloned' for pPGKmWnt5aV5, which is probably a slip; Conditioned medium from stably transfected L cells; also called mWnt5aV5; recombinant Wnt5a; not shown: V5 tag
T4 sequence (looked up): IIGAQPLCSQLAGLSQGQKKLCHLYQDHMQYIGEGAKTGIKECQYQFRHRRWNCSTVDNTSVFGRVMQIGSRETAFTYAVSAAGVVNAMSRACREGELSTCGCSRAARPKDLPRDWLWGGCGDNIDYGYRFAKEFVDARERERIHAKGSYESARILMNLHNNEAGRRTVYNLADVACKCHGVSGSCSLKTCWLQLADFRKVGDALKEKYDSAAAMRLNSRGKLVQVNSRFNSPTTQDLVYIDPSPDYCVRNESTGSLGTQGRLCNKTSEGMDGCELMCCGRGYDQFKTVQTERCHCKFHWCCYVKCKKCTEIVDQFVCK
The experiment in a line: cell surface binding on transfected HEK293T cells.
Text: (A-C) Cell surface binding assays. (A, D) Rspo3 binds to syndecan 4 and glypican 3. HEK293T cells were transfected with indicated plasmids and V5-tagged Wnt5a or alkaline phosphatase tagged Rspo3, Dkk1, or TSP proteins were applied for cell surface binding as indicated. (B, C, E, F) Cells were transfected with indicated plasmids and conditioned media.
as §2

In general, Kd refers to the free concentration of one partner at which half of the binding sites on the other are occupied at equilibrium, for simple one-to-one binding. Read a high Kd as lower affinity.

For B1, the binding result in assay [1] and in assay [2] was “no binding” each time. In assay [3], B2 had a Kd of 0.88 nM. In the case of B3, the binding result in assay [4] and in assay [5] was “no binding” each time.
